The chains are these.
T1: human CAPRIN-1 protein expressed on cell membrane surfaces of human cancer cells (human, UniProt Q14444 2-709)
T1 construct: whole, on cells; only a portion of CAPRIN-1 is said to be on the membrane surface
T1 sequence (looked up): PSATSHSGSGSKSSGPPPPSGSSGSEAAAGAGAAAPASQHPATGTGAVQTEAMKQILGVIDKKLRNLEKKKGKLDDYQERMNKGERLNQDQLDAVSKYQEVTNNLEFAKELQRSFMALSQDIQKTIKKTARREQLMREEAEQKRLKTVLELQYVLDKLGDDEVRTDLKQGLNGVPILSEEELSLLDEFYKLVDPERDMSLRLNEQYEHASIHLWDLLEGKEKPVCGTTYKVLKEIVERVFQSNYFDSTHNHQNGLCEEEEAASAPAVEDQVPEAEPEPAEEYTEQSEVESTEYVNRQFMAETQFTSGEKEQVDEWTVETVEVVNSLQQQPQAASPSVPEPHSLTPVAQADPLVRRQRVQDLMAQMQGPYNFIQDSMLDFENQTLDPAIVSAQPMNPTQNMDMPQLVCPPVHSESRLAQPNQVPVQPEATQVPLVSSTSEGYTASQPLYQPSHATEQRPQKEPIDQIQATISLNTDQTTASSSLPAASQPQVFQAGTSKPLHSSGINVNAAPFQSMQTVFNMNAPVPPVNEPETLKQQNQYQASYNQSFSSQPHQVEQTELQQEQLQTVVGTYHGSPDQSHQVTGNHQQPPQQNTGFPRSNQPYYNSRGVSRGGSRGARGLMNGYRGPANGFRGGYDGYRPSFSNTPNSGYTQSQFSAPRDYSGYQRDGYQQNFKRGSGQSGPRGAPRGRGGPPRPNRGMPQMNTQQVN

B1: anti-CAPRIN-1 antibody (a) (antibody, V domains shown)
VH: AVTLDESGGGLQMSRGGLSLVCKASGFDFSSYQMNWIRQAPGKGLEFVAAINKFGNSTGHGAAVKGRVTISRDNGQSTVRLQLNNLRAEDTAIYFCTKHAYGYCGSGTWCAAGEIDAWGHGTEVIVSS
VL: QAASTQPSSVSANPGETVEITCSGGGSYSYGWFQQKSPGSAPVTVIYYNNKRPSDIPSRFSGSKSGSTGTLTITGVQADDEAVYYCGSGDSTDTAVFGAGTTLTVLG
B2: anti-CAPRIN-1 antibody (o) (antibody, V domains shown)
VH: EVQLHQFGAELVKPGASVKISCKASGYTFTDYNMDWVKQSHGKSLEWIGDINPNYDSTSYNQKFKGKATLTVDKSSSTAYMELRSLTSEDTAVYYCARSRSYDYEGFAYWGQGTLVTVSA
VL: DIQMTQSPASLSASVGETVTITCRASGNIHNYLAWYQQKQGKSPQLLVYNAKTLADGVPSRFSGSGSGTQYSLKINSLQPEDFGSYYCQHFWSTLTFGAGTKLELKR
B3: anti-CAPRIN-1 antibody (e) (antibody, V domains shown)
VH: AVTLDESGGGLQTPGGALSLVCKASGFTFSGYDMLWVRQAPGKGLEWVAGIGSTGGGTDYGAAVKGRATISRDNGQSTVRLQLNNLRAEDTATYYCAKVAGGCNSGYCRDSPGSIDAWGHGTEVIVS
VL: AVTQQPASVSANPGETVKITCSGGGSRNYYGWYQQKSPGSVPVTVIYYDDQRPSNIPSRFSGALSGSTSTLTITGVQADDEAVYFCGSADSNTYEGSFGAGTTLTVL
B4: anti-CAPRIN-1 antibody (c) (antibody, V domains shown)
VH: AVTLDESGGGLQTPGGGLSLVCKASGFTFSSFDMGWVRQAPGKGLEFVAQINDAGSRTWYATAVKGRATISRDNGQTTVRLQLNNLRAEDTGTYYCTRGSGYVGAGAIDAWGHGTEVIVS
VL: AALTQPSSVSANPGETVKITCSGGSGYYGWYQQQKSPGSAPVTVIYQNDKRPSDIPSRFSGSGSGSTNTLTITGVQAEDEAVYFCGRYDSTDSGIFGAGTTLTVL
B5: anti-CAPRIN-1 antibody (af) (antibody, V domains shown)
VH: EVQLVESGGGLVQPGGSLRLSCAASGFSLSSHSLGWVRQAPGKGLEWIGDIRSGGSAYYANWAKGRFTISRDNSKNTLYLQMNSLRAEDTAVYYCTRTNGPSDLTNRLDLWGQGTLVTVSS
VL: QVLTQSPSSLSASVGDRVTINCQASQSLYNNENLAWFQQKPGKVPKRLIYGASTLASGVSSRFSGSGSGTEFTLTISSLQCEDFAIYYCLGEFSCGSADCFAFGGGTKVEIK
B6: anti-CAPRIN-1 antibody (ah) (antibody, V domains shown)
VH: EVQLVESGGGLVQPGGSLRLSCAASGFSLSSHSLGWVRQAPGKGLEWIGDIRSGGSAYYANWAKGRFTISRDNSKNTLYLQMNSLRAEDTAVYYCTRTNGPSDLTNRLDLWGQGTLVTVSS
VL: EQVLTQSPSSLSASVGDRVTINCQASQSLYNNENLAWFQQKPGKVPKRLIYGASTLASGVSSRFSGSGSGTEFTLTISNLQPEDFAIYYCLGEFSCGSADCFAFGGGTKVEIK
B7: anti-CAPRIN-1 antibody (ai) (antibody, V domains shown)
VH: EVQLVESGGGLVQPGGSLRLSCAASGFSLSSHSLGWVRQAPGKGLEWIGDIRSGGSAYYANWAKGRFTISRDNSKNTLYLQMNSLRAEDTAVYFCTRTNGPSDLTNRLDLWGQGTLVTVSS
VL: EIVLTQSPSSLSASVGDRVTINCQASQSLYNNENLAWFQQKPGKVPKRLIYGASTLASGVSSRFSGSGSGTEFTLTISNLQPEDFATYYCLGEFSCGSADCFAFGGGTKVEIK
B8: anti-CAPRIN-1 antibody (ag) (antibody, V domains shown)
VH: EVQLVESGGGLVQPGGSLRLSCAASGFSLSSHSLGWVRQAPGKGLEWIGDIRSGGSAYYANWAKGRFTISRDNSKNTLYLQMNSLRAEDTAVYFCTRTNGPSDLTNRLDLWGQGTLVTVSS
VL: QVLTQSPSSLSASVGDRVTINCQASQSLYNNENLAWFQQKPGKVPKRLIYGASTLASGVSSRFSGSGSGTEFTLTISSLQCEDFAIYYCLGEFSCGSADCFAFGGGTKVEIK
B9: anti-CAPRIN-1 antibody (ak) (antibody, V domains shown)
VH: EVQLVESGGGLVQPGGSLRLSCAASGFSLSSHSLGWVRQAPGKGLEWIGDIRSGGSAYYANWAKGRFTISRDNSKNTLYLQMNSLRAEDTAVYFCTRTNGPSDLTNRLDLWGQGTLVTVSS
VL: EQVLTQSPSSLSASVGDRVTINCQASQSLYNNENLAWFQQKPGKVPKRLIYGASTLASGVSSRFSGSGSGTEFTLTISNLQPEDFAIYYCLGEFSCGSADCFAFGGGTKVEIK
B10: anti-CAPRIN-1 antibody (aj) (antibody, V domains shown)
VH: EVQLVESGGGLVQPGGSLRLSCAASGFSLSSHSLGWVRQAPGKGLEWIGDIRSGGSAYYANWAKGRFTISRDNSKNTLYLQMNSLRAEDTAVYYCTRTNGPSDLTNRLDLWGQGTLVTVSS
VL: EIVLTQSPSSLSASVGDRVTINCQASQSLYNNENLAWFQQKPGKVPKRLIYGASTLASGVSSRFSGSGSGTEFTLTISNLQPEDFATYYCLGEFSCGSADCFAFGGGTKVEIK
B11: anti-CAPRIN-1 antibody (b) (antibody, V domains shown)
VH: EQSLVESGGGLVQPGGSLRLSCAASGFSLSSHSLGWVRQAPGKGLEWIGDIRSGGSAYYANWAKGRFTISRDNSKNTLYLQMNSLRAEDTAVYYCTRTNGPSDLTNRLDLWGQGTLVTVSS
VL: QVLTQSPSSLSASVGDRVTINCQASQSLYNNENLAWFQQKPGKVPKRLIYGASTLASGVSSRFSGSGSGTEFTLTISSLQCEDFAIYYCLGEFSCGSADCFAFGGGTKVEIK
B12: anti-CAPRIN-1 antibody (j) (antibody, V domains shown)
VH: DAELVKPGASVKISCKASGYTFTDHSIHWVQQKPEQGLEWIGYISPGNGNIKYNEKFKGKATLTADKSSSTAYMQLNSLTSEDSAVYFCKRSLGRGGPYYFDYWGQGTTVTVSS
VL: DIVLTQAAPSLPVTPGESVSISCRSSKSLLHSNGNTYLYWFLQRPGQSPQLLIYRMSNLASGVPDRFSGSGSGTAFTLRISRVEAEDVGVYYCMQHREYPVTFGSGPN
B13: anti-CAPRIN-1 antibody (d) (antibody, V domains shown)
VH: QSLEESGGDLVKPGASLTLTCTASGFSFSGSYYMSWVRQAPGKGLEWIAYIYIGDGVTAYANWAKGRFTISKASSTTVTLQMTSLTAADTATYFCARGNKLWGPGTLVTVSS
VL: DVVMTQTPASVEAAVGGTVTIKCQASQSISSYLAWYQQKPGQPPKRLIYDASNLDSGVPSRFKGSGSGTDFTITISDLECADAATYYCQCTAVSSATIYGNAFGGGTEVVVK
B14: anti-CAPRIN-1 antibody (z) (antibody, V domains shown)
VH: GPDLVKPGASVKISCKASGYSFTAYYMHWVKQSHGKSLEWIGRVNPNNGGTTYNQKFKGKAILTVDKSSSTAYMELRSLTFEDSAVYYCARRIYYGYFDYWGQGTTVTVSS
VL: AFFAVSLGQRATISCKASQSVDYDGDSYMNWYQQKPGQPPKLLIYVASNLESGVPARFSGSGSGTDFTLNIHPVEEEDAATYYCQQSNEDPYTFGGGTKLEIKQ
B15: anti-CAPRIN-1 antibody (i) (antibody, V domains shown)
VH: GAELVRSGASVKMSCKASGYSFTDYNMYWVKQTPGQGLEWIGYIYPGNGGTNYNQKFKGKATLTADTSSSTAYMQISSLTSEDSAVYFCARDYDDGGYAMDYWGQGTTVTVSS
VL: DIQMTQSPASLSASVGETVTITCRASGNIHNYLTWYQQKQGKSPQLLVYNAKTLADGVPSRFSGSGSGTQYSLKINRLQPEDFGSYYCQHFWNIPWTFGGGTKLNSR

The first assay relates to human breast cancer cells BT474. The assay is described as follows: In vivo antitumor effect of anti-CAPRIN-1 antibody and topotecan in BT474 cancer-bearing mice. Set-up: species or system NOD-SCID mice. The following applies: day 56 after bearing cancer; antibody 10 mg/kg, topotecan low (3 mg/kg) and high (10 mg/kg) dose. The method, then:
An in vivo antitumor effect in a cancer-bearing mouse by a combined use of the anti-CAPRIN-1 antibody (anti-CAPRIN-1 humanized antibody #1) produced in Example 1 and topotecan was evaluated.
Specifically, the antitumor effect of the combined use of the anti-CAPRIN-1 antibody and topotecan according to the present invention was studied using NOD-SCID mice in which human-derived cancer cells expressing CAPRIN-1 protein were subcutaneously transplanted. Human breast cancer cells BT474 were subcutaneously transplanted at 2×10^7 cells per mouse as a mixture with Matrigel (Sigma) and allowed to grow until a tumor became approximately 154 to 155 mm^3 to prepare cancer-bearing mice. The cancer cells BT474 express CAPRIN-1 protein on cell membrane surfaces, and the anti-CAPRIN-1 antibodies produced in Example 1 were confirmed to react with a portion of CAPRIN-1 present on the cell membrane surfaces. Each anti-CAPRIN-1 antibody produced in Example 1 was administered at 10 mg/kg once a week, four times in total, to the tail veins of eight cancer-bearing mice described above. To the same mice, a low dose (3 mg/kg) or a high dose (10 mg/kg) of topotecan was administered once every four days, four times in total.
For a comparative control group, the same dose of the same anti-CAPRIN-1 antibody as above was administered once a week to cancer-bearing mice. Furthermore, for another comparative control group, a low dose (3 mg/kg) or a high dose (10 mg/kg) of topotecan was administered to other cancer-bearing mouse individuals at the same administration intervals. Cancer-bearing mice in a non-treatment group were used as negative controls. After the start of administration, the sizes of cancers in the cancer-bearing mice were measured over time using calipers. The tumor volume of each individual was calculated according to a standard method using a calculation formula: (Length of the major axis of the tumor)×(Length of the minor axis of the tumor)^2×0.5, and the average of the treated group was calculated.
As to `CC[C@@]1(O)C(=O)OCc2c1cc1n(c2=O)Cc2cc3c(CN(C)C)c(O)ccc3nc2-1` [topotecan], the “tumor volume compared to that at the start of the administration” value is on record as “increased”.

The assay is the same for the next values; noted with them: topotecan alone, high dose 10 mg/kg once every four days, four times; day 56 after bearing cancer.
On to `CC[C@@]1(O)C(=O)OCc2c1cc1n(c2=O)Cc2cc3c(CN(C)C)c(O)ccc3nc2-1` [topotecan], for which the “tumor volume, assuming that the tumor volume of the negative control was 100%” value is 16%.

Staying with this assay, now noted: topotecan alone, low dose 3 mg/kg once every four days, four times; day 56 after bearing cancer.
As to `CC[C@@]1(O)C(=O)OCc2c1cc1n(c2=O)Cc2cc3c(CN(C)C)c(O)ccc3nc2-1` [topotecan], the “tumor volume, assuming that the tumor volume of the negative control was 100%” value is 33%.

Another assay addresses T1, human CAPRIN-1 protein expressed on …. The assay is described as follows: flow cytometry on cancer cells expressing CAPRIN-1.
Conditions: not given
Background: A flow cytometer gives signals particle by particle.
On to B1, for which the binding result is given as “binds”.

As to B2, the binding result was “binds”.

As for B3, the binding result is “binds”. Regarding B4, the binding result is “binds”. Take B5: the binding result is given as “binds”. Turning to B6, the binding result was “binds”.

In the case of B7, the binding result is “binds”. Regarding B8, the binding result was “binds”. Take B9: the binding result is “binds”. Take B10: the binding result is reported as “binds”. B11: the binding result was “binds”. For B12, the binding result is on record as “binds”. On the same count and under the same terms, the entry for B13 is “binds”. Still for that read-out and setting: the entry for B14 is “binds”; for B15 it is “binds”.
